Test results reported in the supplement of paper PMC7877785.
± gives the uncertainty stated by the source.

Assay: self-splicing fitness, log relative to wild type (ln ratio); higher = more splicing; Tetrahymena group I intron in knt gene, E. coli kanamycin selection, DiMSum; sequences stand for … in CUCUCU…GGAGGGAAAAGUUAUCAGGCAUGCACCUGGUAGCUAGUCUUUAAACCAAUAGAUUGCAUCGGUUUAAAAGGCAAGACCGUCAAAUUGCGGGAAAGGGGUCAACAGCCGUUCAGUACCAAGUCUCAGGGGAAACUUUGAGAUGGCCUUGCAAAGGGUAUGGUAAUAAGCUGACGGACAUGGUCCUAACCACGCAGCCAAGUCCUAAGUCAACAGAUCUUCUGUUGAUAUGGAUGCAGUUCACAGACUAAAUGUCGGUCGGGGAAGAUGUAUUCUUCUCAUAAGAUAUAGUCGGACCUCUCCUUAAUGGGAGCUAGCGGAUGAAGUGAUGCAACACUGGAGCCGCUGGGAACUAAUUUGUAUGCGAAAGUAUAUUGAUUAGUUUUGGAGUACUCGUGGUCG
Method in brief: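 DiMSum derived fitness as the error-weighted combination of fold changes across replicates, kanamycin versus no kanamycin, normalised to wild type. E. coli BL21(DE3) held the library, which randomised all eight P1ex-region intron nucleotides within the knt kanamycin-resistance gene on pET-22b(+). Six replicate transformations grew overnight at 37°C or 30°C on LB agar with or without 25 μg/mL kanamycin, also containing 100 μg/mL carbenicillin, 50 μM IPTG and 0.2% rhamnose, and pooled colonies were amplicon-sequenced on an Illumina HiSeq 2500.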

Sequence	self-splicing fitness (ln) (30 °C)	self-splicing fitness (ln) (37 °C)
GAACAGCAAUAUUACGUUGU	-3.8 ± 0.21	-2.24 ± 0.12
GAAGAGCAAUAUUACGAAAC	-2.57 ± 0.27	-1.38 ± 0.39
GAAGAGCAAUAUUACGAGCU	-4.07 ± 0.21	-1.61 ± 0.14
GAAGAGCAAUAUUACGAGGG	-3.54 ± 0.2	-3.02 ± 0.28
GAAGAGCAAUAUUACGAGGU	-4.02 ± 0.39	-3.52 ± 0.33
GAAGAGCAAUAUUACGAGUC	-4.22 ± 0.46	-2.8 ± 0.47
GAAGAGCAAUAUUACGCUGG	-1.92 ± 0.24	
GAAGAGCAAUAUUACGCUUU	-4.12 ± 0.3	-1.91 ± 0.28
GAAGAGCAAUAUUACGGAGG	-2.48 ± 0.2	-2.01 ± 0.31
GAAGAGCAAUAUUACGGCCU	-1.15 ± 0.14	-0.824 ± 0.19
GAAGAGCAAUAUUACGGCUC	-1.85 ± 0.24	-2.06 ± 0.3
GAAGAGCAAUAUUACGGUUG	-3.86 ± 0.35	-2.18 ± 0.38
GAAGAGCAAUAUUACGUAGC	-2.27 ± 0.21	-2.31 ± 0.21
GAAGAGCAAUAUUACGUAUC	-3.42 ± 0.21	-3.41 ± 0.22
GAAGAGCAAUAUUACGUCAA	-3.04 ± 0.27	-2.16 ± 0.22
GAAGAGCAAUAUUACGUCAC		-2.13 ± 0.23
GAAGAGCAAUAUUACGUCGA	-1.47 ± 0.21	-1.76 ± 0.31
GAAGAGCAAUAUUACGUCGG	-3.36 ± 0.3	-2.37 ± 0.3
GAAGAGCAAUAUUACGUGCC	-3.3 ± 0.19	-1.81 ± 0.23
GAAGAGCAAUAUUACGUGGC	-2.97 ± 0.24	-3.01 ± 0.33
GAAGAGCAAUAUUACGUGGG	-3.22 ± 0.16	-3.05 ± 0.2
GAAGAGCAAUAUUACGUUCC	-4.33 ± 0.28	-2.04 ± 0.31
GAAGAGCAAUAUUACGUUGA	-3.21 ± 0.19	-2.63 ± 0.2
GAAGAGCAAUAUUACGUUGU	-3.56 ± 0.28	-2.83 ± 0.24

Sequence	self-splicing fitness (ln) (30 °C)	self-splicing fitness (ln) (37 °C)
GAAGAGCAAUAUUACGUUUA	-1.61 ± 0.15	-2.56 ± 0.2
GAAUAGCAAUAUUACGACCU	-0.378 ± 0.11	0.363 ± 0.13
GAAUAGCAAUAUUACGACGG	-3.32 ± 0.36	-1.1 ± 0.19
GAAUAGCAAUAUUACGAGGA	-2.85 ± 0.33	-1.5 ± 0.18
GAAUAGCAAUAUUACGAGGU	-4 ± 0.36	-2.61 ± 0.24
GAAUAGCAAUAUUACGAGUA	-2.44 ± 0.17	-1.98 ± 0.17
GAAUAGCAAUAUUACGAUAA	-1.51 ± 0.1	-0.77 ± 0.13
GAAUAGCAAUAUUACGAUCG	1.29 ± 0.19	-0.178 ± 0.27
GAAUAGCAAUAUUACGCAGC	-2.72 ± 0.2	-1.93 ± 0.2
GAAUAGCAAUAUUACGCCCA	-0.91 ± 0.17	-0.732 ± 0.24
GAAUAGCAAUAUUACGCGGU	-2.24 ± 0.15	-2.75 ± 0.27
GAAUAGCAAUAUUACGCUCC		-1.37 ± 0.33
GAAUAGCAAUAUUACGCUCG	0.178 ± 0.15	-0.999 ± 0.16
GAAUAGCAAUAUUACGCUGC	-3.36 ± 0.45	-3.32 ± 0.32
GAAUAGCAAUAUUACGGAAA	-1.98 ± 0.16	-1.31 ± 0.14
GAAUAGCAAUAUUACGGAAG	-4.14 ± 0.39	-2.1 ± 0.25
GAAUAGCAAUAUUACGGACA	-0.557 ± 0.12	-0.0249 ± 0.16
GAAUAGCAAUAUUACGGCAG	-3.67 ± 0.39	-1.93 ± 0.25
GAAUAGCAAUAUUACGGCGU	-0.554 ± 0.15	0.178 ± 0.16
GAAUAGCAAUAUUACGGCUG	-0.443 ± 0.083	-0.941 ± 0.1
GAAUAGCAAUAUUACGGGUA	-2.2 ± 0.19	-1.2 ± 0.14
GAAUAGCAAUAUUACGGUAA	-2.25 ± 0.16	-0.943 ± 0.13
GAAUAGCAAUAUUACGGUAC	-1.1 ± 0.13	-0.802 ± 0.2
GAAUAGCAAUAUUACGGUAG	-2.88 ± 0.12	-2.22 ± 0.16
